Assay in all cases: Steady-state kinetics, NADH-dependent reduction of 2-oxo acids (A340)
Substrate in data set [1]: O=C(O)C(=O)CCc1ccccc1
Format: biochemical, Bacillus stearothermophilus. The note with it: other: +FBP (5 mM), 25° C., pH 6. As for the experimental part: (§1) Overnight cultures (11) were centrifuged and the packed cells were resuspended in 50 mM triethanolamine, pH 6.0. The cells were sonicated and the debris was removed by centrifugation. The protein in the supernatant was precipitated by the addition of 65% ammonium sulphate. The precipitate was spun down and resuspended in 50 mM triethanolamine, pH 6.0 and dialysed against the same buffer. After dialysis, NADH and FBP were added to the protein to final concentrations of 5 mM and 10 mM before loading onto an oxamate Sepharose column which had been pre-equilibrated with 50 mM triethanoloamine, pH 6.0, 3 mM NADH and 5 mM FBP. After washing off unbound protein with column buffer mutant LDH was eluted with 50 mM triethanolamine, pH 9.0, 0.3 M NaCl. The elutant was precipitated with 65% ammonium sulphate and then resuspended in and dialysed against 50 mM triethanolamine, pH 7.5. The protein was then loaded onto a Q-Sepharose Fast Flow column and eluted with a salt gradient. LDH eluted at a concentration of 0.25M NaCl. For the double glycine mutant enzyme, the first chromatography procedure with oxamate Sepharose was replaced by chromatography on Blue Sepharose -F3GA, otherwise the procedure was essentially the same. All proteins were judged to be greater than 98% pure from the intensity of Coomassie blue staining on an SDS Phast gel (Pharmacia). The yield of protein was usually 0.2 g/l of original broth.
(§2) Steady-state measurements were made by following the reduction in absorbance at 340 nm in the NADH/NAD^+ conversion. All assays were at 25° C. in the buffer Bis-Tris, pH 6, (20 mM), containing KC1 (50 mM) and when used fructose-1,6-bisphosphate at 5 mM. Protein concentration was determined from the absorbance at 280 nm using the value of 0.91 for 1 mg/ml protein in 1 cm path and an Mr of 33,000.
(§3) The specific substrates used in the evaluations are shown in the left column of Table 4. In Table 4, "235/6GG" denotes the mutant enzyme formed by substituting GlyGly for AlaAla at the 235-236 positions of the enzyme (Wilks et al., Biochemistry 1990, 29, 8587-8591), and "WTrs" denotes a mutant derived from the wild-type strain as shown in FIG. 1 of Wilks et al., Biochemistry 1992, 31, 7802-7806.

Substrate in data set [2]: O=C(O)C(=O)Cc1ccccc1
Format: biochemical, Bacillus stearothermophilus. The note with it: other: +FBP (5 mM), 25° C., pH 6. How it is done:
as §1, §2, §3

Substrate in data set [3]: CC(=O)C(=O)O
Format: biochemical, Bacillus stearothermophilus. Conditions: other: -FBP, 25° C., pH 6. As for the experimental part: as §1, §2, §3

Substrate in data set [4]: O=C(O)C(=O)CCc1ccccc1
It counts as biochemical. The note with it: 25° C., pH 6.
Text: (§4) Mutants were identified by making mini-preps and restricting with SacII and XbaI. Mutant mini-preps were restricted with EcoRI and XhoI and the small fragment was subcloned into PKK223-3 containing Ala235Gly, Ala236Gly mutant LDH from which the small EcoRI/XhoI fragment had been removed (Wilks et al. Biochemistry, 1990, 29, 8587). The resulting plasmid (pLDHrs) was transformed into competent E. coli TG2 cells.
as §1, §2, §3

Substrate in data set [5]: CCCCC(=O)C(=O)O
It counts as biochemical. The note with it: other: -FBP, 25° C., pH 6.
Text: as §4, §1, §2, §3

Substrate in data set [6]: CC(C)CC(=O)C(=O)O
Format: biochemical. Conditions: other: -FBP, 25° C., pH 6.
Text: as §4, §1, §2, §3

Substrate in data set [7]: O=C(O)C(=O)Cc1ccccc1
It counts as biochemical. The note with it: 25° C., pH 6.
Text: as §4, §1, §2, §3

Substrate in data set [8]: CC(=O)C(=O)O
It counts as biochemical. The note with it: other: -FBP, 25° C., pH 6.
Text: as §4, §1, §2, §3

Numbering of substitutions follows the chain as printed. Names and notes keep the numbering of the source.

B1: Bacillus stearothermophilus lactate dehydrogenase, wild type, SEQ ID NO: 3 (Geobacillus stearothermophilus) (protein)
chain: MKNNGGARVVVIGAGFVGASYVFALMNQGIADEIVLIDANESKAIGDAMDFNHGKVFAPKPVDIWHGDYDDCRDADLVVICAGANQKPGETRLDLVDKNIAIFRSIVESVMASGFQGLFLVATNPVDILTYATWKFSGLPHERVIGSGTILDTARFRFLLGEYFSVAPQNVHAYIIGEHGDTELPVWSQAYIGVMPIRKLVESKGEEAQKDLERIFVNVRDAAYQIIEKKGATYYGIAMGLARVTRAILHNENAILTVSAYLDGLYGERDVYIGVPAVINRNGIREVIEIELNDDEKNRFHHSAATLKSVLARAFTR
notes: made in house; host or cells: E. coli
In the case of B1, in data set [1], the Km (commonly the substrate concentration at which the rate is half of its maximum) is 0.6 mM; the kcat (usually the number of substrate molecules converted per active site and unit of time at saturation) is 6 s⁻¹; the kcat/Km (commonly the second-order rate constant that governs catalysis at low substrate concentration) was 10000 M⁻¹ s⁻¹. In data set [2], the Km came to 1.8 mM, the kcat came out at 32.7 s⁻¹ and the kcat/Km was determined as 18000 M⁻¹ s⁻¹. Moreover, in data set [3], the Km stood at 2 mM, the kcat was 250 s⁻¹ and the kcat/Km came out at 50000 M⁻¹ s⁻¹.

B2: Bacillus stearothermophilus lactate dehydrogenase mutant 235/6GG (Ala235Gly, Ala236Gly) (Geobacillus stearothermophilus; A222G/A223G) (protein)
chain: B1 chain with A222G, A223G
notes: as for B1
On to B2, for which, in data set [1], the Km came out at 13 mM, the kcat was determined as 7 s⁻¹ and the kcat/Km stood at 538 M⁻¹ s⁻¹. Also, in data set [2], the Km was 4.5 mM, the kcat came to 53.4 s⁻¹ and the kcat/Km was 12000 M⁻¹ s⁻¹.

B3: Bacillus stearothermophilus lactate dehydrogenase mutant WTrs (restriction-site construct pLDHrs, Cys97Thr, Ala235Gly, Ala236Gly; loop SEQ ID No 7) … (protein)
chain: B1 chain with C81T, A222G, A223G
notes: made in house; host or cells: E. coli TG2
Consider B3, for which the Michaelis-Menten constant (Km) in data set [4] (other: +FBP (5 mM)) was determined as 4 mM; in data set [4] (other: -FBP) it was 12 mM; in data set [5], 30 mM; in data set [6] it was 28 mM; in data set [7] (other: +FBP (5 mM)), 6 mM; in data set [7] (other: -FBP), 21 mM. For the same protein, the Km in data set [8] was found to be 100 mM. In addition, the figures for the kcat in data set [4] (other: +FBP (5 mM)) and in data set [7] (other: +FBP (5 mM)) were 6 s⁻¹ and 58 s⁻¹, respectively. In addition, the catalytic efficiency (kcat/Km) in data set [4] (other: +FBP (5 mM)) is 1500 M⁻¹ s⁻¹; in data set [7] (other: +FBP (5 mM)) it was 9600 M⁻¹ s⁻¹.

Values taken from patent US5770410A, “Chiral synthesis with modified enzymes” (Genzyme Corporation, priority 1992, dated 1998).
